Measurements as given in patent US20190078119A1.

Biological target: AAV8 capsid (native AAV8) (AAV8)
Assay: cell-based or functional assay

Row | Substance | AAV8 Nab titer (neutralizing antibody titer of the antibody stock)
1 | monoclonal antibody ADK8/9 | 2560 titer 1:n
2 | monoclonal antibody ADK9 | 5 titer 1:n
3 | monoclonal neutralizing antibody ADK8 | 2560 titer 1:n
